Where two headings read alike, the source gives them in different places.

The target of series [1] is integrin αvβ3 (Homo sapiens, UniProt P05106+P06756). The series can be described thus: Competitive cell binding assay with ^125I-echistatin in U87MG cells.
A short description of series [2]: Octanol-water partition coefficient. In kind it is physicochemical.
A short description of series [3]: Metabolic stability in urine by radio-HPLC. The series is classed as in vivo, ICR mice.
The nature of series [4]: Dynamic PET. The arrangement: species or system athymic nude mice. Particulars: mouse, in vivo; for half-life: iv.
Series [5] in a line: Longitudinal static PET with ROI analysis in U87MG tumor-bearing mice. Conditions: mouse, in vivo. Also on record: species or system athymic nude mice.
Series [6] in a line: Ex vivo biodistribution at 4 h p.i. Also on record: species or system athymic nude mice. Conditions: mouse, in vivo.
A short description of series [7]: Serum stability by radio-HPLC. In kind it is in vitro ADME, mouse.
A short description of series [8]: in vivo. Conditions: both, athymic nude, mouse, tumor, 10 mg/kg, total radioactivity.
The conditions of series [9]: mouse, U87MG tumor, 10 mg/kg.

As a reminder, the IC50 is the midpoint of a concentration-inhibition curve. For `N=C(N)NCCC[C@@H]1NC(=O)[C@H](CCCCNC(=S)Nc2ccc(CC3CN(CC(=O)O)CCN(CC(=O)O)CCN3CC(=O)O)cc2)NC(=O)[C@@H](Cc2ccccc2)NC(=O)[C@H](CC(=O)O)NC(=O)CNC1=O` (stereo partly drawn) [NOTA-c(RGDfK)], in series [1], the IC50 was 507 ± 62 nM.

For orientation: logP means the decadic logarithm of the partition coefficient of the neutral form, usually between octanol and water. A word on the tissue uptake: it is the share of the injected amount in each gram of the tissue. What is called half-life is the time needed for the level to fall by half in the phase considered. A higher half-life goes with slow loss. The molecule `N=C(N)NCCC[C@@H]1NC(=O)[C@H](CCCCNC(=O)COCCOCCNC(=O)COCCOCCNC(=S)Nc2ccc(C[C@H]3CN(CC(=O)O)CCN(CC(=O)O)CCN3CC(=O)O)cc2)NC(=O)[C@@H](Cc2ccccc2)NC(=O)[C@H](CC(=O)O)NC(=O)CNC1=O` [^64Cu-NOTA-(PEG)2-c(RGDfK), metal not drawn] registered a logP in series [2] of -2.82 ± 0.06. Further, the “radioactive metabolites in urine” value in [3] (mouse, in vivo) is recorded as “not observed”. In series [4], this molecule registered a tissue uptake of about 4 %ID/g and a half-life of 4.76 min. Moreover, in series [5], the tissue uptake at 0.5 h was 3.62 ± 0.21 %ID/g. This molecule also yielded a tissue uptake at 4 h in series [6] of 2.36 ± 0.31 %ID/g. Besides, the “fraction remaining intact in serum” value in [7] (mouse, serum, 4 h) is over 95%.

For the molecule `N=C(N)NCCC[C@@H]1NC(=O)[C@H](CCCCNC(=O)[C@H]2O[C@@H](CNC(=O)[C@H]3O[C@@H](CNC(=O)[C@H]4O[C@@H](CNC(=O)[C@H]5O[C@@H](CNC(=O)CCOCCOCCOCCOCCNC(=S)Nc6ccc(C[C@H]7CN(CC(=O)O)CCN(CC(=O)O)CCN7CC(=O)O)cc6)[C@H](O)[C@@H](O)[C@H]5O)[C@H](O)[C@@H](O)[C@H]4O)[C@H](O)[C@@H](O)[C@H]3O)[C@H](O)[C@@H](O)[C@H]2O)NC(=O)[C@@H](Cc2ccccc2)NC(=O)[C@H](CC(=O)O)NC(=O)CNC1=O` [^64Cu-NOTA-PEG4-SAA4-c(RGDfK), metal not drawn], in series [2], the lipophilicity (logP) was -3.4 ± 0.05. Moreover, in series [3] (urine collected 1 h after administration), the “radioactive metabolites in urine” value is “not observed”. The tissue uptake in series [4] (5.5 MBq) is about 4 %ID/g; in series [8], 10 %ID/g. This molecule displayed a half-life in series [4] (5.5 MBq) of 4.07 min. In addition, the tissue uptake at 0.5 h in series [5] (5.5 MBq, U87MG tumor uptake, PET, 0.5 h p.i.) was determined as 2.5 ± 0.18 %ID/g; in [9], 0.42 ± 0.14 %ID/g. Further, the tissue uptake at 2 h in [5] (5.5 MBq, U87MG tumor uptake, PET, 2 h p.i., n = 3) came out at 1.77 ± 0.38 %ID/g; in [9] it was 0.24 ± 0.06 %ID/g. In addition, the tissue uptake at 4 h in series [5] (5.5 MBq, U87MG tumor uptake, PET, 4 h p.i., n = 3) worked out at 1.67 ± 0.38 %ID/g; in [6] (10 mg/kg, kidney uptake, ex vivo, with blocking, 4 h p.i., blocking group, c(RGDyK) 10 mg/kg), 1.78 ± 1.04 %ID/g; in [6] (5.5 MBq, U87MG tumor uptake, ex vivo, 4 h p.i., γ-counter), 1.14 ± 0.26 %ID/g; in [6] (5.5 MBq, kidney uptake, ex vivo, 4 h p.i., positive (unblocked) group) it was 0.96 ± 0.12 %ID/g; in series [9], 0.18 ± 0.03 %ID/g. Moreover, the “fraction remaining intact in serum” value in [7] (1 or 4 h incubation in mouse serum at 37°C) is over 95%.

For `N=C(N)NCCC[C@@H]1NC(=O)[C@H](CCCCNC(=S)Nc2ccc(CC3CN(CC(=O)O)CCN(CC(=O)O)CCN3CC(=O)O)cc2)NC(=O)[C@@H](Cc2ccccc2)NC(=O)[C@H](CC(=O)O)NC(=O)CNC1=O` (stereo partly drawn) [^64Cu-NOTA-c(RGDfK), metal not drawn], in series [2], the logP was -2.65 ± 0.01. The same molecule showed a half-life in series [4] of 2.56 min. This molecule also registered a tissue uptake at 0.5 h in series [5] of 4.78 ± 0.74 %ID/g. For the same molecule, the tissue uptake at 4 h in series [6] was 2.98 ± 0.52 %ID/g.

The values above are taken from publication PMC4591102 (European journal of nuclear medicine and molecular imaging, 2015).
